Data as given in the RNAGym collection of RNA variant scans (doi:10.1073/pnas.2313332121).
This sample holds only a part of the variants without activity.

B1: TPR 5TU (parent)
chain: GGAUCUUCUCGAUCUAACAAAAAAGACAAAUCUGCCACAAAGCUUGAGAGCAUCUUCGGAUGCAGAGGCGGCAGCCUUCGGUGGCGCGAUAGCGCCAACGUUCUCAACUAUGACACGCAAAACGCGUGCUCCGUUGAAUGGAGUUUAUCAUG

Variants of: B1
Test: polymerase ribozyme fitness, log enrichment relative to wild type (log ratio); higher = more active; in vitro selection for triplet polymerase activity
Summary of the method: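 Both subunits of a heterodimeric triplet polymerase ribozyme were given their own mutant library, built by PCR and transcribed. Each library was annealed with a biotinylated primer, the partner subunit and triplets, incubated frozen at −7 °C, and its extended constructs gel-excised, captured on streptavidin beads and amplified by RT-PCR, all in one round done in triplicate. Fitness is the logarithm of genotype enrichment relative to wild-type enrichment, with replicates averaged by inverse-variance weighting. That logarithm is base 2, and Illumina-sequenced genotypes needed ≥10 input reads and ≥1 read per output.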

Row | Variant | polymerase ribozyme fitness (log ratio)
1 | A49C A137C | ≤ -4.2
2 | A49U C69U | -1.86
3 | C51A C63A U82A | -0.419
4 | A49U G58C C75G C118G G124A | ≤ -4.2
5 | G50A C54G U77G A97U A120G | ≤ -4.2
6 | G48A G62A A73U A91G C95G U139A A142C | ≤ -4.2
7 | G48C G68C G70A C129G | ≤ -4.2
8 | G50C C95A | -2.7
9 | A47U U55G G94A | -0.633
10 | G50C A98U U101A | ≤ -4.2
11 | A47U U61A | -1.41
12 | G50U G84A U148G | ≤ -4.2
13 | A49C G84U A107G U111G A120G | ≤ -4.2
14 | G48U U77C C79G G143U | ≤ -4.2
15 | G48A C96A | -1.51
16 | G48A C96U | -0.356
17 | G50C G84A | -3.25
18 | G48A G84C G100C | ≤ -4.2
19 | G50U C95G U104A | -1.95
20 | A49C U145G | ≤ -4.2
21 | G50U C95A C125G | -0.894

Row | Variant | polymerase ribozyme fitness (log ratio)
22 | C51A A52C C75A G83U G88C A91G C123G G126U A147U U151G | ≤ -4.2
23 | G50A G128U | -3.21
24 | A49G G68U G133A | ≤ -4.2
25 | G50C G86U U111G | ≤ -4.2
26 | G50U U61G C108U U135A | ≤ -4.2
27 | G50C A52C U77C C79A U101G A115U | ≤ -4.2
28 | G50C G94A U127C G133U A138C | ≤ -4.2
29 | G50A C79U A138G | ≤ -4.2
30 | A49U U55A U56G | -1.76
31 | G48U A120U | -0.0736
32 | A49G U53A | -1.54
33 | G50U C54U C93A G136U | -4.07
34 | G50U A60U C87U G94A U146A | ≤ -4.2
35 | G48C U53C G136U | -3.16
36 | C51A C72U G74C C93A G141A | ≤ -4.2
37 | A49G G117A | -0.467
38 | A49G G117U | -0.367
39 | G50U A113C U139G | -3.93
40 | A49C G81A G92U C93U G140U G152C | ≤ -4.2
41 | A49U G133U | -3.93
42 | G48A U127G | -3.5

Row | Variant | polymerase ribozyme fitness (log ratio)
43 | G50C G74C A120G G124U G126A | ≤ -4.2
44 | G50C G83A | -3.65
45 | A49C G124U | ≤ -4.2
46 | A49G U53C C114U | -2.54
47 | G50U C87U C114A | -3.78
48 | G50U C57A C76A A122U C131G | ≤ -4.2
49 | C51A A52G G68A A142C U144A | ≤ -4.2
50 | G50A G94U | -3.07
51 | A49G G50A U56A C95U U101C U111G | ≤ -4.2
52 | G50C U55G G67A C75A C87U U134G A137G | ≤ -4.2
53 | A49C G58A G65A U139A | ≤ -4.2
54 | A49G U55G G88A U139C U145A | ≤ -4.2
55 | A49U G50A | -0.047
56 | G50U U55A G126U | -0.316
57 | G50U G84U | -1.81
58 | G48A G62A G68C U78G C87A A91U A98U | ≤ -4.2
59 | C51A A60G A89U | -1.65
60 | G50U C54G | -1.98
61 | C51A A91G | -3.53
62 | G48C U55A C93G | -3.87
63 | G50C C54U C87A U135C U144C | ≤ -4.2

Row | Variant | polymerase ribozyme fitness (log ratio)
64 | G48A C103A | -1.74
65 | G48A A150U | -0.592
66 | G48C C85U | -1.95
67 | A47U G83U A122U | -0.574
68 | A49G C69U | -1.39
69 | G50C G65A | -3.27
70 | G48A U55A | -1.14
71 | G48C C76A C93U G94A A138C G140A U146G | ≤ -4.2
72 | A49C U134G | ≤ -4.2
73 | A49G G59U A97U G143A | -3.58
74 | A49U A66G G84A C87U A98G | ≤ -4.2
75 | A47U G81A C125G A150C | ≤ -4.2
76 | G50C C87U A122U | -3.11
77 | G50A C76A C96U | -3.13
78 | A47U U56A A122G U127C | -2.55
79 | G50C C85A C93A | ≤ -4.2
80 | A49C A64U G67U G68A G71A | ≤ -4.2
81 | A49G A52C U56A A91G G92A A121G | -3.9
82 | G50C G86A C103G G124U C125U G126C | ≤ -4.2
83 | G50A G136U U144G U146C | -2.38
84 | A49U C51A U55G C95A | -2.79
